From patent US20250110130

Chain of MMP2 (P08253 110-660): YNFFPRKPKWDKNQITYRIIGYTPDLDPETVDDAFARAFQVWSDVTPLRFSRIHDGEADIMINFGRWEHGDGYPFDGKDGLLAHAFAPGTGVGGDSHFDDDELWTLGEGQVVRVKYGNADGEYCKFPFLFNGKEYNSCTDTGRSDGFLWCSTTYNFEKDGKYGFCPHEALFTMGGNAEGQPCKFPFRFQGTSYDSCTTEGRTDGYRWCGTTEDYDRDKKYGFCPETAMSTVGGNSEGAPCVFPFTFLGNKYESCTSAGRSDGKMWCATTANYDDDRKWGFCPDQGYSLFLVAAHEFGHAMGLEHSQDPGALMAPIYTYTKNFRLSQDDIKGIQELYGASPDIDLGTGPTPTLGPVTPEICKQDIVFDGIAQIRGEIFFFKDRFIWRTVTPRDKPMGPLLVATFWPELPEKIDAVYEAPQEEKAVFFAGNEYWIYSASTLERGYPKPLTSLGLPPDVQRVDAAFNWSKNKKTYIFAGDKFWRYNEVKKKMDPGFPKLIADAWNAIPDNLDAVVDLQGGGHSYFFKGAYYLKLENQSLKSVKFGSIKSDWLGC
Chain of MMP1 (P03956 100-469): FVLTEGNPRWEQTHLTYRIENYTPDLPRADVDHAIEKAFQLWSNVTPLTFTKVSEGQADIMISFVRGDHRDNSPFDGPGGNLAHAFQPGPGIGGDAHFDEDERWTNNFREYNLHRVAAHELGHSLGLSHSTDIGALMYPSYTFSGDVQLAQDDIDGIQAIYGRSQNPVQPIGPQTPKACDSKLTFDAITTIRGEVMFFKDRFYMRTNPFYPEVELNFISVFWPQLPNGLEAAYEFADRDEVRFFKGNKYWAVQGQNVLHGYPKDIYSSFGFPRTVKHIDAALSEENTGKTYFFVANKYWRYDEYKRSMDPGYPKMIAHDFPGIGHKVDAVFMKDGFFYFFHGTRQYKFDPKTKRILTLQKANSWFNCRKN
Chain of MMP20 (O60882 108-483): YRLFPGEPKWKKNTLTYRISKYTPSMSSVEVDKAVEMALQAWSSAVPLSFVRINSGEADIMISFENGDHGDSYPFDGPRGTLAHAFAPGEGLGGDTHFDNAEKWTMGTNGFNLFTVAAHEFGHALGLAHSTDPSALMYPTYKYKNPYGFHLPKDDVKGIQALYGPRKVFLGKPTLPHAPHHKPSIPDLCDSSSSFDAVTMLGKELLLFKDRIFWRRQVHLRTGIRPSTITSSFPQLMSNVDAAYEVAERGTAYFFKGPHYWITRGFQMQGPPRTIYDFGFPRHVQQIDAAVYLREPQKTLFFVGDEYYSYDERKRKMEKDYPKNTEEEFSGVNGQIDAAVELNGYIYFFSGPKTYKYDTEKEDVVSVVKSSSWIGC

Row | Substance | fluorescence read of probe cleavage, recombinant protease assay (Probe #417) | fluorescence read of probe cleavage, recombinant protease assay (Probe #554) | also measured
1 | MMP20 |  |  | fluorescence read of probe cleavage, recombinant protease assay (Probe #117): Probe #117 sensed MMP2 and MMP20 (FIG. 55D)
2 | MMP2 | Probe #417 sensed MMP1, MMP2, MMP8, MMP13, and MMP14 (FIG. 55C) | Probe #554 sensed MMP1, MMP2, MMP13, MMP14, and DPP4 (FIG. 55F) | fluorescence read of probe cleavage, recombinant protease assay (Probe #117): Probe #117 sensed MMP2 and MMP20 (FIG. 55D); fluorescence read of probe cleavage, recombinant protease assay (Probe #349): Probe #349 sensed MMP2 and DPP4 (FIG. 55A)
3 | MMP8 | Probe #417 sensed MMP1, MMP2, MMP8, MMP13, and MMP14 (FIG. 55C) |  | 
4 | MMP13 | Probe #417 sensed MMP1, MMP2, MMP8, MMP13, and MMP14 (FIG. 55C) | Probe #554 sensed MMP1, MMP2, MMP13, MMP14, and DPP4 (FIG. 55F) | fluorescence read of probe cleavage, recombinant protease assay (Probe #263): Probe #263 sensed MMP13 (FIG. 55E)
5 | MMP1 | Probe #417 sensed MMP1, MMP2, MMP8, MMP13, and MMP14 (FIG. 55C) | Probe #554 sensed MMP1, MMP2, MMP13, MMP14, and DPP4 (FIG. 55F) | 
6 | DPP4 |  | Probe #554 sensed MMP1, MMP2, MMP13, MMP14, and DPP4 (FIG. 55F) | fluorescence read of probe cleavage, recombinant protease assay (Probe #411): Probe #411 sensed DPP4 (FIG. 55B); fluorescence read of probe cleavage, recombinant protease assay (Probe #387): Probe #387 sensed DPP4 (FIG. 55G); fluorescence read of probe cleavage, recombinant protease assay (Probe #349): Probe #349 sensed MMP2 and DPP4 (FIG. 55A)
7 | MMP14 | Probe #417 sensed MMP1, MMP2, MMP8, MMP13, and MMP14 (FIG. 55C) | Probe #554 sensed MMP1, MMP2, MMP13, MMP14, and DPP4 (FIG. 55F) | 
